This note sets out measurements from publication PMC2716513.

The target of test [1] is ADAMTS13 (wild-type recombinant ADAMTS13 with a carboxy-terminal V5 tag) (UniProt Q76LX8).
For test [2] the target is unchanged. This is another data set of the same source.
In the next test the target is ADAMTS13 P475S mutant (UniProt Q76LX8).

Some results are limits rather than exact numbers.

“von Willebrand Factor (VWF) (from UniProt P04275 764-2813) (natural protein)”: the reactivity of the mAb Wh2-11-1 to intracellular ADAMTS13 (flow cytometry, permeabilized HEK293 cells) after incubation with VWF at 37°C, fold increase in test [1] is over 10 fold. Moreover, the fluorescence intensity of the mAb Wh-2-11-1 on wild-type ADAMTS13 (flow cytometry) on addition of VWF, fold increase (data not given) in test [2] is 3.5 fold. In the test with ADAMTS13 P475S mutant, this substance showed a fluorescence intensity of the mAb Wh-2-11-1 on the P475S mutant ADAMTS13 (flow cytometry) on addition of VWF, fold increase (data not given) of 1.9 fold.
